Experimental data reported in PMC9439264 (Nature Communications, 2022).
Where “and” joins values, the source holds several entries; their conditions need not be identical. Identical values can stand only once.

Experiments:
[1] = molecular target: HA ectodomain of A/Beijing/262/1995 (H1N1), recombinant, with C-terminal thrombin site, foldon and 6-His-tag (Influenza A virus A/Beijing/262/1995 …, strain); test: SPR; conditions: both partners purified
[2] = molecular target: T1, HA trimer of A/Beijing/262/1995 (H1N1), thrombin- and trypsin-treated, for the immune complex (Influenza A virus A/Beijing/262/1995 …); test: cryo-EM structure; 12H5 Fab with thrombin- and trypsin-treated BJ/1995 HA trimer; conditions: both partners purified
T1 construct: copies: 3 + 3

[3] = molecular target: HA ectodomain of A/Beijing/262/1995 (H1N1), recombinant (Influenza A virus A/Beijing/262/1995 …, strain); test: SPR; conditions: both partners purified
[4] = molecular target: HA of A/New Caledonia/20/1999 (H1N1) virus, in infected MDCK cells (Influenza A virus A/New …, UniProt Q6WG00, strain); test: immunostaining of cells or tissue; conditions: one partner purified
[5] = molecular target: HA ectodomain of A/New Caledonia/20/1999 (H1N1), recombinant (Influenza A virus A/New …, UniProt Q6WG00, strain); test: ELISA; conditions: both partners purified
[6] = molecular target: HA ectodomain of A/Beijing/262/1995 (H1N1) (Influenza A virus A/Beijing/262/1995 …, strain); test: SPR; conditions: both partners purified
[7] = molecular target: HA of B/Florida/4/2006 (Yamagata) (Influenza B virus B/Florida/4/2006 …, UniProt E1TVD5, strain); test: ELISA; conditions: both partners purified

B1: C12H5, human-mouse chimeric version of mAb 12H5 (variable region of mouse 12H5, human IgG1 constant region) (antibody, V domains shown)
VH: QIQLVQSGPELKKPGETVRISCKASGYTFTKNGMNWVQQAPGKGLKWVGWINTYTGEPSYADDFKGRFAFSLETSASTAYLQINNLKNEDMAAYFCARMVRDAMDFWGQGTSVTVSS
VL: DIVLTQSPASLAVSLGQRATISCKASQSVDFDGYNYLNWYQQKPGQPPKLLIYAASNLESGIPARFSGSGSGTDFTLNIHPVEEEDAATYFCQQSNEDPYTFGGGTKLEIK
notes: also called MAb C12H5; C12H5 IgG; copies: 2 + 2
- koff [1]: 0.00089 s⁻¹
- kon [1]: 109000 M⁻¹ s⁻¹

B2: 12H5 Fab (mouse antibody) (Fab, V domains shown)
VH: B1 VH
VL: B1 VL
notes: source: papain digestion of mAb 12H5 (mouse ascites, protein A), purified with DEAE-5PW
- stoichiometry N [2]: 3 Fab per HA trimer

B3: C12H5 (human-mouse chimeric version of mAb 12H5) (antibody, V domains shown)
VH: B1 VH
VL: B1 VL
notes: also called chimeric 12H5 monoclonal antibody; MAb C12H5
- Kd [3]: 8.1 nM
- binding result [4]: binds
- binding result [5]: binds

B4: C12H5 (chimeric 12H5 monoclonal antibody: variable region of mouse 12H5, human IgG1 constant region) (antibody, V domains shown)
VH: B1 VH
VL: B1 VL
notes: also called MAb C12H5; source: CHO cells, transient transfection, purified from culture media (MAbselect Sure)
- Kd [6]: 8.85 nM
- koff [6]: 0.0007 s⁻¹ and 0.00089 s⁻¹ and 0.00108 s⁻¹
- kon [6]: 109000 M⁻¹ s⁻¹ and 122000 M⁻¹ s⁻¹ and 95300 M⁻¹ s⁻¹
- binding result [7]: no binding

B5: CH65, chimeric version (antibody, V domains shown)
VH: EVQLVQSGAEVKKPGASVKVSCKASGYTFTDYHINWVRQAPGQGLEWMGWIHPNSGDTNYAQKFQGWVTMTRDTAISTAYMEVNGLKSDDTAVYYCARGGLEPRSVDYYYYGMDVWGQGTTVTVSS
VL: SVLTQPPSVSVAPGQTARITCGGNDIGRKSVHWNQQKPGQAPVLVVCYDSDRPSGIPERFSGSNSGNTATLTISRVEAGDEADYYCQVWDSSSDHVIFGGGTKLTVL
- binding result [5]: binds
